{
  "source": "the DeepSol protein solubility set",
  "data": [
    {"experiment": "soluble on expression in E. coli; label from the status in PepcDB or PDB records", "values": [
      {"sequence": "MDLLDKVMGEMGSKPGSTAKKPATSASSTPRTNVWGTAKKPSSQQQPPKPLFTTPGSQQGSLGGRIPKREHTDRTGPDPKRKPLGGLSVPDSFNNFGTFRVQMNAWNLDISKMDERISRIMFRATLVHTDGRRFELSLGVSAFSGDVNRQQRRQAQCLLFRAWFKRNPELFKGMTDPAIAAYDAAETIYVGCSFFDVELTEHVCHLTEADFSPQEWKIVSLISRRSGSTFEIRIKTNPPIYTRGPNALTLENRSELTRIIEAITDQCLHNEKFLLYSSGTFPTKGGDIASPDEVTLIKSGFVKTTKIVDRDGVPDAIMTVDTTKSPFYKDTSLLKFFTAKMDQLTNSGGGPRGHNGGRERRDGGGNSRKYDDRRSPRDGEIDYDERTVSHYQRQFQDERISDGMLNTLKQSLKGLDCQPIHLKDSKANRSIMIDEIHTGTADSVTFEQKLPDGEMKLTSITEYYLQRYNYRLKFPHLPLVTSKRAKCYDFYPMELMSILPGQRIKQSHMTVDIQSYMTGKMSSLPDQHIKQSKLVLTEYLKLGDQPANRQMDAFRVSLKSIQPIVTNAHWLSPPDMKFANNQLYSLNPTRGVRFQTNGKFVMPARVKSVTIINYDKEFNRNVDMFAEGLAKHCSEQGMKFDSRPNSWKKVNLGSSDRRGTKVEIEEAIRNGVTIVFGIIAEKRPDMHDILKYFEEKLGQQTIQISSETADKFMRDHGGKQTIDNVIRKLNPKCGGTNFLIDVPESVGHRVVCNNSAEMRAKLYAKTQFIGFEMSHTGARTRFDIQKVMFDGDPTVVGVAYSLKHSAQLGGFSYFQESRLHKLTNLQEKMQICLNAYEQSSSYLPETVVVYRVGSGEGDYPQIVNEVNEMKLAARKKKHGYNPKFLVICTQRNSHIRVFPEHINERGKSMEQNVKSGTCVDVPGASHGYEEFILCCQTPLIGTVKPTKYTIIVNDCRWSKNEIMNVTYHLAFAHQVSYAPPAIPNVSYAAQNLAKRGHNNYKTHTKLVDMNDYSYRIKEKHEEIISSEEVDDILMRDFIETVSNDLNAMTINGRNFWA", "soluble on expression in E. coli": "not soluble"},
      {"sequence": "MDLMAYWLCITNEDNWKVIKEKKIWGVAERYKNTINKVKVGDKLIIYEIQRSGKDYKPPYIRGVYEVVSEVYKDSSKIFKPTPRNPNEKFPYRVKLKEIKVFEPPINFKELIPKLKFITNKKRWSGHLMGKAMREIPEEDYKLIVGN", "soluble on expression in E. coli": "soluble"},
      {"sequence": "MDLSELERDNTGRCRLSSPVPAVCLKEPCVLGVDEAGRGPVLGPMVYAICYCPLSRLADLEALKVADSKTLTENERERLFAKMEEDGDFVGWALDVLSPNLISTSMLGRVKYNLNSLSHDTAAGLIQYALDQNVNVTQVFVDTVGMPETYQARLQQHFPGIEVTVKAKADSLFPVVSAASIFAKVARDKAVKNWQFVENLQDLDSDYGSGYPNDPKTKAWLRKHVDPVFGFPQFVRFSWSTAQAILEKEAEDVIWEDSEAEEDPERPGKITSYFSQGPQTCRPQAPHRYFQERGLEAASSL", "soluble on expression in E. coli": "soluble"},
      {"sequence": "MDLSMTTPEEITQYLQDHPEFFEEHPDLLESLRFPHPYEGRVISINERQVAMLREKNKLLQNRLQELIDVGENNDAISEKMHRLTVALLGFGSLPELLHELQYHLCEDFSIPHVVLRLWQIDEFGTEADLPSPEFDPISNNVRILAQGMLRPYCGPEVDDEIRQWFAQDAEYLKSFAVIPLKKQSNFGLLVMASPEAERFYPDMGTLYLERLGDMVSSSIMRLIQQTPGAANRESAS", "soluble on expression in E. coli": "not soluble"},
      {"sequence": "MDNGTDSSTSKFVPEYRRTNFKNKGRFSADELRRRRDTQQVELRKAKRDEALAKRRNFIPPTDGADSDEEDESSVSADQQFYSQLQQELPQMTQQLNSDDMQEQLSATVKFRQILSREHRPPIDVVIQAGVVPRLVEFMRENQPEMLQLEAAWALTNIASGTSAQTKVVVDADAVPLFIQLLYTGSVEVKEQAIWALGNVAGDSTDYRDYVLQCNAMEPILGLFNSNKPSLIRTATWTLSNLCRGKKPQPDWSVVSQALPTLAKLIYSMDTETLVDACWAISYLSDGPQEAIQAVIDVRIPKRLVELLSHESTLVQTPALRAVGNIVTGNDLQTQVVINAGVLPALRLLLSSPKENIKKEACWTISNITAGNTEQIQAVIDANLIPPLVKLLEVAEYKTKKEACWAISNASSGGLQRPDIIRYLVSQGCIKPLCDLLEIADNRIIEVTLDALENILKMGEADKEARGLNINENADFIEKAGGMEKIFNCQQNENDKIYEKAYKIIETYFGEEEDAVDETMAPQNAGNTFG", "soluble on expression in E. coli": "soluble"},
      {"sequence": "MDNPTTPIAVVGPTASGKSALGVSLAHHLNGEVVNVDSMQLYKGMDIGTAKLTLEEREGIVHHLLDVWDISETASVARYQSQAIAVVEDIQRRGKTPILVGGSMLYVQSLVDDWQFPPTDPSVRAKWESKLNEVGVEALHALLAQKDPQAASIIELKDPRRTVRALEVIELTGKPFNASQPPKNAPPRWNTQIIGLGTNTEWLNPRIDLRTELMFEKGFVHEVENLVGKGLIADSTAGHAIGYAQVLQHFAGELSVDEMIEHTKIGTRRYVRRQRSWFKRDPRIHWIDASGDTFSMALSLLS", "soluble on expression in E. coli": "not soluble"},
      {"sequence": "MDNSGKEAEAMALLAEAERKVKNSQSFFSGLFGGSSKIEEACEIYARAANMFKMAKNWSAAGNAFCQAAQLHLQLQSKHDAATCFVDAGNAFKKADPQEAINCLMRAIEIYTDMGRFTIAAKHHISIAEIYETELVDIEKAIAHYEQSADYYKGEESNSSANKCLLKVAGYAALLEQYQKAIDIYEQVGTNAMDSPLLKYSAKDYFFKAALCHFCIDMLNAKLAVQKYEELFPAFSDSRECKLMKKLLEAHEEQNVDSYTESVKEYDSISRLDQWLTTMLLRIKKTIQGDEEDLR", "soluble on expression in E. coli": "soluble"},
      {"sequence": "MDNTEDVIKEFMQFKVRMEGSVNGHYFEIEGEGEGKPYEGTQTAKLQVTKGGPLPFAWDILSPQFQYGSKAYVKHPADIPDYMKLSFPEGFTWERSMNFEDGGVVEVQQDSSLQDGTFIYKVKFKGVNFPADGPVMQKKTAGWEPSTEKLYPQDGVLKGEISHALKLKDGGHYTCDFKTVYKAKKPVQLPGNHYVDSKLDITNHNEDYTVVEQYEHAEARHSGSQ", "soluble on expression in E. coli": "soluble"},
      {"sequence": "MDPIASVLEKVKSFTKSSQDLVSRHFGFHENPSRLNPIDILKRLQRETFSDLMKLRERQEKVERIISSQKLSKGGPFQETSTHVRGEVDVLGAILLMGNTDEESFNGLNKEGVRPGLLSRFVFETSLRETDRLVAELVAGYNGAGSHRDFLGGELSLAKVFYKADINDWFSAIAIPVGAHFRDIEASTVSSYQGMSLTEVSELGPPLLSQHNGSAIGLTFRKSNITASLAQSMSNVEVEQGLTAPNRCFRTFGQVTCHILRSLKLSLLGCHQVLTSSSNLHSVGAITVPVSFLRRHTATEPEPSAPPLEMSRNMNHVSSSSIALKLDSLMDESTKLGGWIEIQNSREKQVKWSVSITDNPEDEVGWGMSVGGVVDGSRNHDQFQVESYLKFNIGDRFRLSPCLVYHTNSDGRTIGLMLKSHWSL", "soluble on expression in E. coli": "soluble"},
      {"sequence": "MDPKFLVVEIDSKERALQLVQVMLENGFARFMLLDDLSRHPTLDRIQREEPRISRDELRETASSPVTFETRHSPYPVHEQKVLFPSFSQVSNSMVTSTGIRQEASSVGVGPIEDDDIVEEEEEEDIRLTSKPCVKRRYDHHAEEQEYRDQLMSLLSGEPEIVPIGVNSNDEPSGSNSDSAAKKAKSVGDYHECQLCGVRVKTPRSGRWNLQMHVIALHCVGRQYKCKQCDYLDYRKSTMRKHTVSQHGSDIPPHNITDNIMKAEWHAAMIKCFPEFAHRTGFLN", "soluble on expression in E. coli": "not soluble"},
      {"sequence": "MDPSENVFKYETAYDLLVRLGAERLFLRTCLSILDPVLELHPGKCYEIDGDLGVGKTQICYSFAAKFLQTKKTAKMGWIGATPLRTDHLLLHIEHFGNQTNEDILDRIVCKRVEKIAELQDSLTRFLDTINLQLVIVENIDAILHDTVYHKEMGRSMQSDVVERIRKLTKLEITVILTNHITHWRGYPAPALGAFWSSQINNRFFIEKRNDDSDIRIVSAMKGEQDDGMNRIEFKIGDRGLKAVE", "soluble on expression in E. coli": "not soluble"},
      {"sequence": "MDPSMYPGASATYLSYPQQNASQDYLGAYAAQTTTTTRNTANGSTSSDHLLGDPSSSCSPRETSPSTTSLVLTIRLLMQGKEVGSIIGKKGDQIKKIREESGAKINISDGSCPERIVTITGTLGVIGKAFNMVCNKFEEDMLLLPNSVPKPPITMRVIVPATQCGSLIGKGGSKIKDIREATGASIQVASEMLPHSTERAVTLSGTADAINLATSLKIPGSTKRLHNHIPPKTNVQPIGNRHVSGYNCRTTTTGTGSTATRRGSTYGWRTGTGVQVQQQLVTNALLQQHQFAAVQQELAARAALFNQQLMMPGQQQQASQAQEVYLGQHGLIYTANGVQLGGQDNSKAMEAGAAAAAAAQWQGYDMAAMQQQQQQQQQLLNQYALNQSMLIGAPFMKGGPTPPGTTSGKATSSGASAQGAATSSARFHPY", "soluble on expression in E. coli": "not soluble"},
      {"sequence": "MDPSQQTPQETVVAPVAPLLEDQLELDMKHCFENLIVIDVGANLTNKKYSRDLDSVVQRARDAGVQKLMVHGTSVKSSKEALRLSRIYPDIIYSTAGIHPHDSKSIVEEPATWFDLEHIAQAQECVAIGPCGLDYQRDFSEPDAQKQIFAKQLHLAIRLNKPLLIHERSAQLDLLEILDKFENLPPVIIRGFMGTAEEALKYLDRRFYISLTGYLCKDKSDTGVRRLLEDGTLPLDRLLVETDAPFMYPNTRASKLPQHVKTGITERSLLYLHRYCTFQRNEPCSLPAIVEMIAAFMKKSPDEVALATAFNALKLFGLSLEHHHHHH", "soluble on expression in E. coli": "soluble"},
      {"sequence": "MDQTYAEIENIYTLSPIIATTPKRYDVQYIQQKSRKNRNLIDHFDSRLPIEYRYPKKNSSATSSLSSAASRSLASKSLASSSSGYSSLGSTSSITTVFNGLSPFRSKSKNEEFDEQKAPSMRISEDVASIVIGENNSEVEEAVIDEVPEIKKRACCIECREKEIRQELDLESHQYANLQSLQKPQDPYVFLMTSMLTNLQKEDGGRQVVKVQQKIEKVLRLKPREPFNVEQKLVFDRQISTFASDVTIRLRAVSDAAPETYRDVSARFCEALHPGTPNSKGLKNIVKGVKNLLNF", "soluble on expression in E. coli": "not soluble"},
      {"sequence": "MDRADLRIAVLMGTKDGAPFIDEQLQSLLAQSHPLIDLWISDDGSVDGTVPIIEAWKSRWTKGRVTLVQGPREGFAANFRSMILDRRIDADFYAFSDQDDVWEPDRLESAVQWMQAFGAEPPLMFCSRTATMTETGSLAGHSPLFRRPPSFRNALVQSIAGGNTILLNRAARDLLARASARTGFVSHDWWAYLVVTGAGGVVHYDPRPLVRYRQHAANLVGANVSWAARVSRLGRLFKGEFADWTDLNLAGLAVNRDLLTPDAATCLDLFASGRQGSLFQRLRTLLVSGVYRQTLAGTLGLYLAFVLGRILEHHHHHH", "soluble on expression in E. coli": "not soluble"},
      {"sequence": "MDRFEIKEEFLLNGQSFKILSGAIHYFRVDPSDWHHSLYNLKALGFNTVETYVPWNLHEPQKGTFHFEGILDLERFLKLAQELGLYAIVRPSPYICAEWEFGGFPAWLLNEPGRMRSNNPTYLKHVAEYYDVLMEKIVPHQLANGGNILMIQIENEYGSFGEEKAYLRAIRDLMIARGVTAPFFTSDGPWRATLRAGSMIEDDILVTGNFGSKAKENFGMMQAFFEEHGKKWPLMCMEFWDGWFNRWKEPIIKRDPQELAESVREALALGSINLYMFHGGTNFGFMNGCSARGTIDLPQITSYDYDAPLDEQGNPTEKYFALQKMLHEEYPALPQAEPLVKESFAQTAIPLTNKVSLFATLETISQPVVSVYPQTMEQLGQNTGYLLYRTSIEKDAAEEKLRVIDGRDRLQLFVNQVHQATQYQTEIGEDIYVTLPQENNQIDILMENMGRVNYGHKLFADTQKKGIRTGVMADLHFMTQWQQYCLPMTSCEQVDYSREWQPDQPSFYQYHVELAEVKDTFIDVSKFGKGIVFVNQTNLGRFWNVGPTLSLYIPKGLLKEGQNEIVIFETEGTYQPEIQLVKEPLYKEMKEGLQ", "soluble on expression in E. coli": "not soluble"},
      {"sequence": "MDRRQRFEKYDWLISKTQSILKNYECPESCNASCCRHHIIDFRRKEYEKILKNVDKESANILKSNAVKSELEGCYKAIVGQCPLLTNSKCRIYNNRPEACRNFPFVIFPDPEAGFGLTLLLCPISVNIIQDYAQWYKSVNLTMYNQLTAVYEQYKNIGENNDFCIQMKEQNLDSFIEFLEKKLEHHHHHH", "soluble on expression in E. coli": "not soluble"}
    ]}
  ]
}
